From patent US20050244862A1

Tests used:
Assay in all cases: cell-based or functional assay
NK1 tachykinin receptor = NK1 tachykinin receptor (UniProt P25103)
NK3 tachykinin receptor = target: T1, NK3 tachykinin receptor (UniProt P29371)
T1 sequence (looked up): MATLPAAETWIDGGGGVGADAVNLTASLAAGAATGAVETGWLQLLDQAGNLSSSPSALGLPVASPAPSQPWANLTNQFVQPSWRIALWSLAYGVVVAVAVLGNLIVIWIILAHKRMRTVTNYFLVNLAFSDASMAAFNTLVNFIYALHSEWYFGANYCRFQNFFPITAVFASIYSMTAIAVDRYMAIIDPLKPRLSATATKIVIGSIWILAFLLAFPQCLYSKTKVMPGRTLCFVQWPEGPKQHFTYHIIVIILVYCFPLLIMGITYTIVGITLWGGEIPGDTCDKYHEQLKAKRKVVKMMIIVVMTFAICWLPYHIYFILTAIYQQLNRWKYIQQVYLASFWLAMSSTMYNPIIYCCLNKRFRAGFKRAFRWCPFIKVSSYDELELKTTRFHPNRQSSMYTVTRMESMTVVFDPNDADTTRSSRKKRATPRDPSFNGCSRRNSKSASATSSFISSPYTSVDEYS

Insulin receptor = target: Insulin receptor
NK2 tachykinin receptor = NK2 tachykinin receptor (UniProt P21452)
Gq-i5 chimeric G-protein = target: Gq-i5 chimeric G-protein
Gq-o5 chimeric G-protein = target: Gq-o5 chimeric G-protein

Sequence of m4 muscarinic receptor (P08173 whole entry): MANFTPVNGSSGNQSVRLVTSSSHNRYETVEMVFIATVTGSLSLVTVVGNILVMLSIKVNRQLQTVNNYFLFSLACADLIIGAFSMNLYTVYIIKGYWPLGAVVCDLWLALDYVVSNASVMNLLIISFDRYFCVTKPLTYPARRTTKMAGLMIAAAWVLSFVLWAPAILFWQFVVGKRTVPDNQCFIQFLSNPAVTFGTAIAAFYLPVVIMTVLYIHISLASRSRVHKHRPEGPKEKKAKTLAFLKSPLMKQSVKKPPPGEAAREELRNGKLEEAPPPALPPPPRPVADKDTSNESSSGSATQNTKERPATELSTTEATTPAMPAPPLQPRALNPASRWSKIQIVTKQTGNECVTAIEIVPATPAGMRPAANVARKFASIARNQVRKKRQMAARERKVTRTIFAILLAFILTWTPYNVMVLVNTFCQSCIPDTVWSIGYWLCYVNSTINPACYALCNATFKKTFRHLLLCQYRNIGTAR
Sequence of NK1 tachykinin receptor (P25103 whole entry): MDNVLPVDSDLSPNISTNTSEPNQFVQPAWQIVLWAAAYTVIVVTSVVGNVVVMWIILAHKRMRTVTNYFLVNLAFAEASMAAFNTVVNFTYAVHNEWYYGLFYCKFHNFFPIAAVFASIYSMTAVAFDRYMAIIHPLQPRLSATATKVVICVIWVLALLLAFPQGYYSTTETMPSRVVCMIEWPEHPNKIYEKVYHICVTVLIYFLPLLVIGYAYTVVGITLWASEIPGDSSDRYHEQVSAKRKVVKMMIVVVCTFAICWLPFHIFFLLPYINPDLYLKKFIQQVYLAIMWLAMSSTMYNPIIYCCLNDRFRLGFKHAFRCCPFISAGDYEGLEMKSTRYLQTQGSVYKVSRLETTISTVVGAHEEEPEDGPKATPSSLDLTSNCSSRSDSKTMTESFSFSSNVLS
Sequence of NK2 tachykinin receptor (P21452 whole entry): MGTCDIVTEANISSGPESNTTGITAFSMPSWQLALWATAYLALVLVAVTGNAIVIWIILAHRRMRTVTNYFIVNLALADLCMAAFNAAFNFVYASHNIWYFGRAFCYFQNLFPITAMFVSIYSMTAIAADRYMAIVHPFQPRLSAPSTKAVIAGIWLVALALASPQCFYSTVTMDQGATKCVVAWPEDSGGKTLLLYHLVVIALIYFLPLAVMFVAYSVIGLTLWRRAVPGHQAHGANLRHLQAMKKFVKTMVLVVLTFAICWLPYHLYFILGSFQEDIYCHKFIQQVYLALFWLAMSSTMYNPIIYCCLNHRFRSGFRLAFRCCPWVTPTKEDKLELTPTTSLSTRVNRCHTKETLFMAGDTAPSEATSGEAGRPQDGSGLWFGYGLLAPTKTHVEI

neurokinin A (from UniProt P20366 98-107) (peptide)
EC50, amplification assay (β-galactosidase), Single Receptor Format (NK1 tachykinin receptor): 14 nM | EC50, amplification assay (β-galactosidase), Single Receptor Format (NK3 tachykinin receptor): 11 nM

Insulin (ligand)
EC50, amplification assay (β-galactosidase), Single Receptor Format (Insulin receptor): 0.08 nM

substance P (from UniProt P20366 58-68) (peptide)
EC50, amplification assay (β-galactosidase), Single Receptor Format (NK2 tachykinin receptor): 65 nM | EC50, amplification assay (β-galactosidase), Single Receptor Format (NK3 tachykinin receptor): 164 nM

m4 muscarinic receptor (from UniProt P08173 1-479)
ED50 of carbachol for the β-galactosidase response of cells co-expressing m4 and Gq-i5 (Gq-i5 chimeric G-protein): 37 nM | ED50 of carbachol for the β-galactosidase response of cells co-expressing m4 and Gq-o5 (Gq-o5 chimeric G-protein): 32 nM
